Test results reported in patent US20060211087A1 (SALK INSTITUTE FOR BIOLOGICAL STUDIES, published 2006).

Target: T1, CRFR2β (CRF receptor 2 beta) (human, UniProt Q60748 35-411 (mouse entry))
T1 construct: also called CRFR2b; CRFRIIβ
Test: 125I-BMP7 tracer (5x10^5 cpm) with or without unlabeled BMP7, Ni-NTA pull-down, gamma counting; CRFR2β as control receptor
Protocol: In a particular example, BMPRII, ALK3 and CRFR2β were incubated with 5×10⁵ cpm ¹²⁵I-BMP7 tracer in the presence or absence of 40 nM unlabeled BMP7 as competitor. BMPRII and ALK3 are type II and type I receptors of BMP7, respectively. CRFR2β is a G-protein coupled receptor with no known affinity for BMP7 and was included as a control. Samples were prepared in triplicate in 1.7 ml eppendorf tubes in a final volume of 1 ml binding buffer (150 mM NaCl, 50 mM Tris (pH 7.5), 0.1% BSA). Binding was performed for […] at room temperature. After an initial 60 minutes of binding, 20 μl of 50% Ni—NTA resin (Qiagen) was added to each sample and allowed to bind for the balance of the […] incubation period. Complexes were precipitated by centrifugation and washed three times in 1 ml binding buffer. After the final wash, bound ¹²⁵I-BMP7 tracer was quantified in a gamma counter. BMP7 was iodinated using a modified Cloramine-T procedure (see, e.g., Lawler et al., J. Neurosci. Meth., 49:141-53, 1993).

T1 sequence (Q60748 other isoform, or with tags, fused parts or gaps): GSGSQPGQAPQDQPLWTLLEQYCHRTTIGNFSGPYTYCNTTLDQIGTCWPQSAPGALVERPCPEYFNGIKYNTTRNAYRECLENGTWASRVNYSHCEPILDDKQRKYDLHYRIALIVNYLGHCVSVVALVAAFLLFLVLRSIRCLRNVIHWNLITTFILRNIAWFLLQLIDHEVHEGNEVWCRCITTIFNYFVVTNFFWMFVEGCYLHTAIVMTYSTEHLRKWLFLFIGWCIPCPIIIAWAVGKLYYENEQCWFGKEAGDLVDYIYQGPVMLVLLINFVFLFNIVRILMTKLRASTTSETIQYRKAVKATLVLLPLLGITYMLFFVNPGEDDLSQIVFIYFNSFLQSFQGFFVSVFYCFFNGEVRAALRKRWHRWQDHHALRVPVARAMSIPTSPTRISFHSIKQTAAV

B1: BMP7 (ligand, UniProt P18075 293-431, looked up)
chain: STGSKQRSQNRSKTPKNQEALRMANVAENSSSDQRQACKKHELYVSFRDLGWQDWIIAPEGYAAYYCEGECAFPLNSYMNATNHAIVQTLVHFINPETVPKPCCAPTQLNAISVLYFDDSSNVILKKYRNMVVRACGCH
modifications: 125I-iodinated by a modified Chloramine-T procedure (tracer); unlabeled form used as competitor
notes: also called unlabeled BMP7
binding result: no binding (tested: 40 nM unlabeled BMP7)
